Test results taken from patent US7618943B2, “Fusion polypeptides, and use thereof in antivascular tumor therapy” (Oncoscience AG, priority 2003, dated 2009).
Entries after “also recorded” stand apart in the source; their conditions may differ.

Legend:
[1] = target: T1, matrix metalloproteinase-2 (MMP-2) (Homo sapiens, UniProt P08253); conditions: cited from earlier work
T1 sequence (P08253 110-660): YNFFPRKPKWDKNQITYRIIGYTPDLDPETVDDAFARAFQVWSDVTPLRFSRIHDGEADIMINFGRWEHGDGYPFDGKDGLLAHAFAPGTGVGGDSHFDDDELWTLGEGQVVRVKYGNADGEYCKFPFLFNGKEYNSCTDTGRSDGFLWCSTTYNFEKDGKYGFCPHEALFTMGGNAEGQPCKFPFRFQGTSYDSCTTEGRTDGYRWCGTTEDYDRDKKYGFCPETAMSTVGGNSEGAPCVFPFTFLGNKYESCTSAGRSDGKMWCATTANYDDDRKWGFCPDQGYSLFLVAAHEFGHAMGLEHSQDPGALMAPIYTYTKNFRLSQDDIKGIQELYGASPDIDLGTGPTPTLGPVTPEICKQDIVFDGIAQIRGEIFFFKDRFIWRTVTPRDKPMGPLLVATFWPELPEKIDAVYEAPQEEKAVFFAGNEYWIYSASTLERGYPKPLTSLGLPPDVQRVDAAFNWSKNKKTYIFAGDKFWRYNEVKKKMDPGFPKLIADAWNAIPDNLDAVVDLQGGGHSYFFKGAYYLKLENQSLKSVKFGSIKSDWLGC

human endothelial cells = test: FACS binding of biotinylated proteins to endothelial cells in suspension; assay type: cell-based; conditions: 0.1 μM tTF-RGD, 1 μM competing peptide
Protocol: FIG. 6: Binding of tTF and tTF-RGD to human endothelial cells. A: FACS analysis of endothelial cells incubated with 0.1 μM tTF (2) or with 0.1 μM tTF-RGD (3) for 60 min at 4° C. […] Curves 1 in A and B show the negative control.
Next the specific binding of tTF-RGD to αvβ3 on endothelial cells was evaluated. For this, the differential binding of biotinylated tTF and tTF-RGD to endothelial cells in suspension was analysed by FACS (Fluorescence Activated Cell Sorting). The fact that all endothelial cells held in tissue culture are activated, i.e. express αvβ3 molecules, is utilized experimentally. This can be detected by various immunohistochemical methods. A cultivated endothelial cell thus corresponds, in relation to its expression pattern with respect to αvβ3 to a tumor endothelial cell. Accordingly, a cultivated endothelial cell can be used as a model system for the specific binding of substances to tumor endothelial cells and also permits predictions to be made concerning the expected toxicity.
Streptavidin-phycoerythrin was used as the detection method. The measured fluorescence intensity for tTF-RGD was higher by a factor of 8 than for tTF (FIG. 6A). Furthermore, the binding of 0.1 μM tTF-RGD to endothelial cells was lowered competitively by 75% by the administration of 1 μM of the synthetic peptide GRGDSP (SEQ ID NO:33) (FIG. 6B). […]

integrin αvβ3 = integrin αvβ3 (Homo sapiens, UniProt P05106+P06756); test: ELISA binding to immobilized purified αvβ3
Protocol: FIG. 4: Binding of tTF, tTF-RGD and tTF-NGR to integrin αvβ3. The binding of 0.1 μM tTF, tTF-RGD and tTF-NGR to immobilized αvβ3 was quantified with a polyclonal antibody against human TF (American Diagnostica) in an ELISA. The results are presented as median and interquartile range. The differences in binding between tTF-RGD and tTF or between tTF-NGR and tTF were statistically significant (p<0.001, Mann-Whitney test).

[2] = target: T2, activation of factor X to factor Xa via factor VIIa (Homo sapiens, UniProt P08709); test: Cofactor activity in activation of FX by FVIIa (Michaelis-Menten analysis, chromogenic FXa readout); assay type: biochemical; conditions: in the presence of phospholipids
T2 construct: 50 nM recombinant FVIIa (Novo-Nordisk) in TBS-BSA; purchased Novo-Nordisk (FVIIa); Enzyme Research Laboratories (FX)
T2 sequence (P08709 61-212 limits assumed): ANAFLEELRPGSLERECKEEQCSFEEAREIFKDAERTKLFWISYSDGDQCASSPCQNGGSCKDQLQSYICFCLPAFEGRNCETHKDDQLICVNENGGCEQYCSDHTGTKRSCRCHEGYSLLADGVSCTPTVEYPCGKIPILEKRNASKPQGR
T2 sequence (P08709 213-466 limits assumed): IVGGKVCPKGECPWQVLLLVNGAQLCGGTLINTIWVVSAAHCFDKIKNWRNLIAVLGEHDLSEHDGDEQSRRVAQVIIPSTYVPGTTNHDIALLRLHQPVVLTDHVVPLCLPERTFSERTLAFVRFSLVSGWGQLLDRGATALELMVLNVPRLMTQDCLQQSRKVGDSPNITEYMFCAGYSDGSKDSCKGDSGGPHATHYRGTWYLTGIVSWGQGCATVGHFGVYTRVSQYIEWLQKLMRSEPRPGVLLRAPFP
Protocol: The ability of tTF and of the tTF fusion polypeptides to intensify the specific proteolytic activation of FX via FVIIa in the presence of phospholipids was determined in a slightly modified version of the method described by Ruf (45). For this, 20 μl of each of the following reagents was pipetted in microtiter plates: (a) 50 nM recombinant FVIIa (Novo-Nordisk) in TBS-BSA; (b) 0.16 nM-1.6 μM tTF/tTF fusion polypeptide in TBS-BSA; (c) 25 mM CaCl2 and 500 μM phospholipid vesicle (phosphatidylcholine/phosphatidylserine, 70/30, M/M; Sigma). After 10 min incubation at room temperature, 20 μl of the natural substrate FX (Enzyme Research Laboratories) was added at a concentration of 5 μM. Then a sample was taken by pipette at one-minute intervals and the reaction was stopped by adding 100 mM EDTA solution. The amount of FXa that formed was measured by addition of the chromogenic substrate Spectrozyme FXa in a Microplate Reader by determining the change in absorption at 405 nm and the parameters for the Michaelis-Menten kinetics were analysed by the method described by Ruf. […] The Michaelis constants (Km) found for the fusion polypeptides were in the range 0.12-1.2 nM (FIG. 3), and thus in the lower range that is published for tTF. It can therefore be assumed that the functional activity is unaffected by the fusing of tTF with the peptides.

[3] = system: human lung carcinoma (CCL185); test: CCL185 lung carcinoma xenograft in athymic nude mice, intravenous therapy; assay type: in vivo
Excerpt: FIG. 7: Inhibition of a human lung carcinoma (CCL185) growing as a xenograft in athymic nude mice by intravenous therapy with tTF fusion proteins (tTF-RGD, n=6; tTF-NGR, n=6) compared with tumor growth with infusion of physiological saline solution (NaCl, n=8) or tTF (n=1). The vertical arrows indicate the times of injection with the respective substances.
c: Inhibition of a human lung carcinoma (CCL185) growing as a xenograft in athymic nude mice by intravenous therapy with tTF fusion proteins (tTF-RGD, n=11) compared with the growth of the tumors in infusion of physiological saline solution (NaCl, n=10) or tTF (n=5). The vertical arrows indicate the times of the injections with the respective substances.
(§1) The tTF-RGD and tTF-NGR fusion proteins were evaluated with respect to their effects and side-effects on xenografts of human tumors in athymic nude mice. The models established in our laboratory were used for this (33, 34). The cell lines CCL185 (human adenocarcinoma of the lung) and M-21 (human melanoma) were injected subcutaneously into the flank of male BALB/c nude mice (9-12 weeks old). On attaining a tumor volume of about 50-100 mm^3 (CCL185) or 400-600 mm^3 (M−21), the mice were assigned to four groups at random. Group 1 received only physiological saline solution (NaCl), group 2 tTF, group 3 tTF-RGD, and group 4 tTF-NGR (in each case 1.5-2.0 mg/kg body weight (BW) of the protein). The injections were made in the caudal vein of the animals at intervals of 1-3 days (depending on the growth rate of the particular cell line). Considerable therapeutic activity of the fusion proteins was observed.

[4] = system: human malignant melanoma (M21); test: M21 melanoma xenograft in athymic nude mice, intravenous therapy; assay type: in vivo
Protocol: The vertical arrows indicate the times of injection with the respective substances.
The vertical arrows indicate the times of the injections with the respective substances.
as §1

[5] = system: human fibrosarcoma (HT1080); test: HT1080 fibrosarcoma xenograft in BALB/c nude mice, intravenous therapy; assay type: in vivo; conditions: HT1080 tumors
Excerpt: b: Inhibition of a human fibrosarcoma (HT1080) growing as a xenograft in athymic nude mice by intravenous therapy with tTF fusion proteins (tTF-RGD, n=12) compared with the growth of the tumors with infusion of physiological saline solution (NaCl, n=15) or tTF (n=14). The vertical arrows indicate the times of the injections with the respective substances.
The antitumor activity of the tTF-RGD fusion protein was also investigated in BALB/c nude mice with fibrosarcomas (HT1080). These tumors grow rapidly and are well-vascularized. […] This effect lasted until the end of the experiment on day 7 (P=0.021 for tTF-RGD relative to the buffer control (physiological saline solution), P=0.005 for tTF-RGD relative to tTF).

tumor blood vessels = test: Macroscopy and histology of tumors after injection (thrombosis induction in tumor vessels, necrosis); assay type: in vivo, mice
Protocol: FIG. 9: Macroscopic in vivo photograph of a tumor-bearing mouse 20 min after injection of the tTF-NGR fusion protein (A, left half of the picture) or NaCl (A, right half of the picture). […] After 60 min, the two mice were exsanguinated, the tumor was excised in toto and examined histologically. […] In contrast, the NaCl-treated tumor appears to be vital (C).
FIG. 10: Histology of the melanoma tumor 1 hour after intravenous injection of tTF-RGD (A and B), tTF-NGR (C and D) and common salt (E and F) in the caudal vein of the tumor-bearing nude mouse. […] The photographs are of representative areas of the tumors (A, C and E: 200× magnification, B, D and F 400× magnification; HE staining (staining described e.g. in H. C. Burck, Histologische Technik-Leitfaden für die Herstellung mikroskopischer Präparate in Unterricht und Praxis, 5th edition, Thieme Verlag, Stuttgart 1982, pages 109 ff.).
FIG. 35: Macrograph of a mouse bearing an M21 tumor at the end of treatment (day 7) with tTF-RGD fusion protein (A, C) or NaCl (B, D).
To verify the mechanism of action of thrombosis induction in tumor vessels, the following experiment was carried out: the human melanoma cell line was injected into the flank of two male BALB/c nude mice. On attaining a tumor size of approx. 500 mm^3, 2.0 mg/kg BW tTF-NGR or NaCl was injected into the caudal vein. […] After 60 min the mice were exsanguinated, the tumor was excised in toto and investigated histologically. […] In contrast, the tumor treated with NaCl appears to be vital (FIG. 9C).

[6] = system: normal tissue such as heart, kidney, liver and lung; test: Histology of normal organs after injection (clotting, necrosis, organ toxicity); conditions: repeated high doses (4 mg/kg BW)
[7] = melanoma tumor 1 hour after intravenous injection, HE staining

integrin αvβ3, sequence (P06756 31-889 limits assumed): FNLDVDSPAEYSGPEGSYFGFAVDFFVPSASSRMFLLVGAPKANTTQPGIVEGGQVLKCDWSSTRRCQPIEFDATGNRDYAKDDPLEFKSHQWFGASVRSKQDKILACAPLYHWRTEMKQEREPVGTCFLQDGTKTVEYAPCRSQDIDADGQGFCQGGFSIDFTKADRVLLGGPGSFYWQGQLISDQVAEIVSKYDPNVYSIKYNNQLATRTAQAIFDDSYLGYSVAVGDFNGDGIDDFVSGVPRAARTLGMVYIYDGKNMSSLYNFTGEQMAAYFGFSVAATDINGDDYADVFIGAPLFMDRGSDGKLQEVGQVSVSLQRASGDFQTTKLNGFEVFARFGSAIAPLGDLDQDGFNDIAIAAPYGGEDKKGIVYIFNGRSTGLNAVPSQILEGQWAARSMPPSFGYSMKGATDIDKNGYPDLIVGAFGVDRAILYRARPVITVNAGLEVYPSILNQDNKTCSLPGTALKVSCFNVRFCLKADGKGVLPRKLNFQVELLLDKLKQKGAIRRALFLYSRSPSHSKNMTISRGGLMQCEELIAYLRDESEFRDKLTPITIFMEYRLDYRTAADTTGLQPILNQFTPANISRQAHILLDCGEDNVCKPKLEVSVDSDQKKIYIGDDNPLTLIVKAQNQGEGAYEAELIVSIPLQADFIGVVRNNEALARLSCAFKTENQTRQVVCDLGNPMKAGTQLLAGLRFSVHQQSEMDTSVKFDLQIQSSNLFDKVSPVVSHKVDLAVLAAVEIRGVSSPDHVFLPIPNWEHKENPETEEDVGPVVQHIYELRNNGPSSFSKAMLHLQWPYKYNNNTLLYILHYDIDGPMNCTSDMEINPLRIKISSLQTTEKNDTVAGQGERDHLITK
integrin αvβ3, sequence (P06756 891-1048 limits assumed): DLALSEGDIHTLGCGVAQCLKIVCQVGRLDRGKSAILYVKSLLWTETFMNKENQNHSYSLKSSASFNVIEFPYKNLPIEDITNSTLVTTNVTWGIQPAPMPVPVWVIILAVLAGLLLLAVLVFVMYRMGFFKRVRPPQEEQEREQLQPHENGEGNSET
integrin αvβ3, sequence (P05106 27-788): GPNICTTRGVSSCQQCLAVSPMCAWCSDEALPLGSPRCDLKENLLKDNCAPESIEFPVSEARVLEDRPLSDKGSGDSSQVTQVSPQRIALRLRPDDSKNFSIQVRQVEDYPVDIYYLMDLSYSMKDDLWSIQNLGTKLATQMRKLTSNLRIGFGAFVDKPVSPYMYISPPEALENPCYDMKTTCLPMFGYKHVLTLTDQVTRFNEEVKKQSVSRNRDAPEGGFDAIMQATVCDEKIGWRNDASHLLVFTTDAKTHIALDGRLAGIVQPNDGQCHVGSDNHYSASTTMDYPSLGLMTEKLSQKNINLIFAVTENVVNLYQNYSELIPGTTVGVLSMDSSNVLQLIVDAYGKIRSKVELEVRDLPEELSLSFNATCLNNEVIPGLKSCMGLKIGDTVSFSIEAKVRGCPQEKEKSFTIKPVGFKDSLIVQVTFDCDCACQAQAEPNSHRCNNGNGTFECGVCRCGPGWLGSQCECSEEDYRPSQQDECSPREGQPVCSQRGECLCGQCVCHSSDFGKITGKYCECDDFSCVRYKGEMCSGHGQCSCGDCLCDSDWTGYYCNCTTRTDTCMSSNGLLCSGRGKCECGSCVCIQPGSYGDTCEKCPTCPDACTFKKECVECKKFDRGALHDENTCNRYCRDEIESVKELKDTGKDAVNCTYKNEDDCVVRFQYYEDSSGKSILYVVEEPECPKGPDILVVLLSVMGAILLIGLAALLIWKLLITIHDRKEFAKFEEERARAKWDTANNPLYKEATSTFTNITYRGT

## TTHWGFTL
[1]
  inhibition of MMP-2: selective and potent inhibition

## GRGDSP: synthetic peptide with the sequence GRGDSP (SEQ ID NO:33) from the company Gibco
Human endothelial cells
  reduction in binding of tTF-RGD to endothelial cells: 75%
Integrin αvβ3; both RGD peptide concentrations (1-10 μM)
  p of inhibition of tTF-RGD binding (Mann-Whitney test): < 0.001
Integrin αvβ3; tTF-RGD 0.1 μM, peptide 1-10 μM
  competitive inhibition of binding of tTF-RGD to immobilized αvβ3: competitively inhibits; also recorded: inhibited significantly

B1: tTF: truncated human tissue factor, N-terminal 218 amino acids of TF (SEQ ID NO:2) (protein, listed as Homo sapiens)
chain: SGTTNTVAAYNLTWKSTNFKTILEWEPKPVNQVYTVQISTKSGDWKSKCFYTTDTECDLTDEIVKDVKQTYLARVFSYPAGNVESTGSAGEPLYENSPEFTPYLETNLGQPTIQSFEQVGTKVNVTVEDERTLVRRNNTFLSLRDVFGKDLIYTLYYWKSSSSGKKTAKTNTNEFLIDVDKGENYCFSVQAVIPSRTVNRKSTDSPVECMGQEKGEFR
modifications: Amino acid sequence of tTF1-218
[2]
  functional activity (cofactor activity in FX activation via FVIIa): functionally active
[3]; CCL185 tumors, Day 0 (baseline)
  Mean tumor volume Day 0: 44 ± 8 mm^3
[3]; CCL185 tumors, Day 7
  Mean tumor volume Day 7: 764 ± 148 mm^3
[4]; M21 tumors, Day 0 (baseline)
  Mean tumor volume Day 0: 558 ± 47 mm^3
[4]; M21 tumors, Day 7
  Mean tumor volume Day 7: 931 ± 147 mm^3
[5]; Day 0 (baseline)
  Mean tumor volume Day 0: 1751 ± 269 mm^3
[5]; Day 7
  Mean tumor volume Day 7: 2335 ± 398 mm^3

B2: tTF-NGR: fusion polypeptide tTF-GNGRAHA (SEQ ID NO:4) (protein)
chain: SGTTNTVAAYNLTWKSTNFKTILEWEPKPVNQVYTVQISTKSGDWKSKCFYTTDTECDLTDEIVKDVKQTYLARVFSYPAGNVESTGSAGEPLYENSPEFTPYLETNLGQPTIQSFEQVGTKVNVTVEDERTLVRRNNTFLSLRDVFGKDLIYTLYYWKSSSSGKKTAKTNTNEFLIDVDKGENYCFSVQAVIPSRTVNRKSTDSPVECMGQEKGEFRGNGRAHA
modifications: Amino acid sequence of tTF-GNGRAHA
[3]; CCL185 xenograft, intravenous therapy, compared with NaCl or tTF
  effect on tumor growth: Inhibition
Tumor blood vessels; [7]
  histology of tumor blood vessels (thrombus formation): microscopically visible thrombus formation in the blood vessels; also recorded: blood vessels appear to be thrombolytically occluded
  histology: tumor necrosis in supply region of occluded vessel: Extensive tumor necroses
Tumor blood vessels; melanoma, 20 min after 2.0 mg/kg BW into the caudal vein
  macroscopic picture of the tumor in vivo: bluish-livid coloration of the tumor
Tumor blood vessels; melanoma, excised 60 min after 2.0 mg/kg BW
  appearance of the excised tumor: hemorrhagic imbibition of the tumor
Integrin αvβ3; 0.1 μM protein, immobilized αvβ3
  binding to the αvβ3 integrin in ELISA: demonstrated
[6]
  visible clot formation or organ toxicity: did not lead to any visible clot formation or organ toxicity
[4]; M21 xenograft, intravenous therapy, compared with NaCl or tTF
  effect on tumor growth: Inhibition and partial remission
